In patent US8293494:

How the values were obtained:
[1] = molecular target: histone H3 dimethylated at lysine 9 (core histones or nucleosomes from HeLa cells), P68431
[2] = molecular target: histone H3 trimethylated at lysine 9 (core histones or nucleosomes from HeLa cells), P68431
[3] = molecular target: histone H3 monomethylated at lysine 9 (core histones or nucleosomes from HeLa cells), P68431

Row | Protein | in vitro demethylation assay, Western blot with α-dimethyl H3K9 [1] | in vitro demethylation assay, Western blot with α-trimethyl H3K9 [2] | in vitro demethylation assay, Western blot with α-monomethyl H3K9 [3]
1 | recombinant JMJD2C (aa 12-349) (protein) PSCKIMTFRPSMEEFREFNKYLAYMESKGAHRAGLAKVIPPKEWKPRQCYDDIDNLLIPAPIQQMVTGQSGLFTQYNIQKKAMTVKEFRQLANSGKYCTPRYLDYEDLERKYWKNLTFVAPIYGADINGSIYDEGVDEWNIARLNTVLDVVEEECGISIEGVNTPYLYFGMWKTTFAWHTEDMDLYSINYLHFGEPKSWYAIPPEHGKRLERLAQGFFPSSSQGCDAFLRHKMTLISPSVLKKYGIPFDKITQEAGEFMITFPYGYHAGFNHGFNCAESTNFATVRWIDYGKVAKLCTCRKDMVKISMDIFVRKFQPDRYQLWKQGKDIYTIDHTKPT | the methylation status of mono- and dimethyl H3K9 is not altered | Recombinant JMJD2C very efficiently demethylates trimethyl H3K9 on both core histones and nucleosomes in vitro | the methylation status of mono- and dimethyl H3K9 is not altered
2 | mutant JMJD2C H190A (aa 12-349) (protein) PSCKIMTFRPSMEEFREFNKYLAYMESKGAHRAGLAKVIPPKEWKPRQCYDDIDNLLIPAPIQQMVTGQSGLFTQYNIQKKAMTVKEFRQLANSGKYCTPRYLDYEDLERKYWKNLTFVAPIYGADINGSIYDEGVDEWNIARLNTVLDVVEEECGISIEGVNTPYLYFGMWKTTFAWATEDMDLYSINYLHFGEPKSWYAIPPEHGKRLERLAQGFFPSSSQGCDAFLRHKMTLISPSVLKKYGIPFDKITQEAGEFMITFPYGYHAGFNHGFNCAESTNFATVRWIDYGKVAKLCTCRKDMVKISMDIFVRKFQPDRYQLWKQGKDIYTIDHTKPT |  | the enzymatically impaired mutant JMJD2C H190A fails to demethylate | 
